From paper PMC8860610

Legend:
[1] = target: yeast nucleosome (histone octamer on 147-bp Widom 601 DNA) (Saccharomyces cerevisiae) (UniProt P04911)
[2] = target: yeast nucleosome (histone octamer on 147-bp Widom 601 DNA) (Saccharomyces cerevisiae) (UniProt P04911); remark: listed apart in the source
[3] = target: yeast nucleosome (histone octamer on 147-bp Widom 601 DNA) (Saccharomyces cerevisiae) (UniProt P04911); remark: listed apart in the source
[4] = target: Tof1-Csm3 (full-length, CBP-tagged) (Saccharomyces cerevisiae) (UniProt P53840)
Chain of Tof1-Csm3 (full-length, CBP-tagged) (Saccharomyces cerevisiae) (P53840 whole entry, chain 1 of 2): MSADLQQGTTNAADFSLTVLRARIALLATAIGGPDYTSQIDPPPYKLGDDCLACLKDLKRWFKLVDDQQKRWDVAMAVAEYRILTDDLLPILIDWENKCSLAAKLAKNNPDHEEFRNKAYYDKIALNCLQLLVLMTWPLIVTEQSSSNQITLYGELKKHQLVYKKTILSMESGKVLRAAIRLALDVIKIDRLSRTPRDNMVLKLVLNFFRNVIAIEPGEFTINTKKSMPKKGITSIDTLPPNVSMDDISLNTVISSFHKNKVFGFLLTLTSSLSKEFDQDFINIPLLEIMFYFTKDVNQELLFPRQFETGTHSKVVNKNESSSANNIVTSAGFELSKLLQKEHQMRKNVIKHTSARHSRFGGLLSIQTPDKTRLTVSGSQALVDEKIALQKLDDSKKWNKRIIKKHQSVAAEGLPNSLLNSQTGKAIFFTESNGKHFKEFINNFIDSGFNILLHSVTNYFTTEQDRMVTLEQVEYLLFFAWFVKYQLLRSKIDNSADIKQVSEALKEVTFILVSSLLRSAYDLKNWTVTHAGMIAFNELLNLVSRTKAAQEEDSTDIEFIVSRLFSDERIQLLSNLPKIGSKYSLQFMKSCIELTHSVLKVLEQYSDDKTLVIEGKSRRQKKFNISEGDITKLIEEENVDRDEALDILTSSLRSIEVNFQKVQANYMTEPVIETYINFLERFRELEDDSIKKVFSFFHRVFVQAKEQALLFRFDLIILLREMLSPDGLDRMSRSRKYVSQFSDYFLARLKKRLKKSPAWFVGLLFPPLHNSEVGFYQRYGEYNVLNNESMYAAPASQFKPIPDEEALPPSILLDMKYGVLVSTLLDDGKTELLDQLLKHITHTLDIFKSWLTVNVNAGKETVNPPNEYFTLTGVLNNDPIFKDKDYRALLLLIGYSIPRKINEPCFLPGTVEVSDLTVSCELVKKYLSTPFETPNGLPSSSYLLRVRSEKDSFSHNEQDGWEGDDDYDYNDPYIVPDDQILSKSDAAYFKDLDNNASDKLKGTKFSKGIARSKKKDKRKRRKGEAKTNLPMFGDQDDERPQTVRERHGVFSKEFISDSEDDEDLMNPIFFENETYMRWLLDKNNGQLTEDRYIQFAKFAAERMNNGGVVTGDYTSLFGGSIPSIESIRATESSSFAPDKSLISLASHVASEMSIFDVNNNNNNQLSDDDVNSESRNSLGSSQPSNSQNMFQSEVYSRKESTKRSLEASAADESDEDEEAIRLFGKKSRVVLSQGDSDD
Chain of Tof1-Csm3 (full-length, CBP-tagged) (Saccharomyces cerevisiae) (Q04659 whole entry, chain 2 of 2, further chain): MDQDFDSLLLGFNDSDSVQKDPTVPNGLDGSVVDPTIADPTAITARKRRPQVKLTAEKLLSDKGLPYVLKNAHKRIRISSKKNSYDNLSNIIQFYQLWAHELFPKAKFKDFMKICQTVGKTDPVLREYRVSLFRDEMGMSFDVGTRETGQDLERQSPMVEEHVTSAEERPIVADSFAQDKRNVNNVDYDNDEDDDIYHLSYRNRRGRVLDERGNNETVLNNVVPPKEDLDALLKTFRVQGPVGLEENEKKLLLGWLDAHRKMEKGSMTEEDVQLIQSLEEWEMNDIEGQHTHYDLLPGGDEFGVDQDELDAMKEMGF

Chain of yeast nucleosome (histone octamer on 147-bp Widom 601 DNA) (Saccharomyces cerevisiae) (P04911 whole entry, chain 1 of 4, other chains not shown): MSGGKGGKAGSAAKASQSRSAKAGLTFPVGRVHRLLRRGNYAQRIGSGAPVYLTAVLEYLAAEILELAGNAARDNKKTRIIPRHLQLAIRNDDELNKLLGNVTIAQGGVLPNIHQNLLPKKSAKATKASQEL
Chain of yeast nucleosome (histone octamer on 147-bp Widom 601 DNA) (Saccharomyces cerevisiae) (P02293 whole entry, chain 2 of 4, other chains not shown, further chain): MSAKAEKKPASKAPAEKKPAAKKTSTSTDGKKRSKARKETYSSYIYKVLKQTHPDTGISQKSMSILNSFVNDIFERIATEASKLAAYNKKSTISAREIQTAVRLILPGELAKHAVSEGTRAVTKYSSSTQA

| reduction of the nucleosome reorganization activity of yFACT (single-molecule FRET) when Tof1-Csm3 is added [1] | nucleosome reorganization, loss of FRET (%) of Cy3/Cy5-labelled nucleosomal DNA, FACT together with Nhp6 (yFACT); nucleosome alone 9.23 [2] | nucleosome reorganization, loss of FRET (%) of Cy3/Cy5-labelled nucleosomal DNA, FACT without Nhp6; nucleosome alone 9.23 [2] | nucleosome reorganization, loss of FRET (%), with Nhp6 [3] | decrease in in vitro chromatin replication (leading-strand length), 50 nM SΔN-P against 50 nM fl FACT, 20 nM fl Tof1-Csm3; restored by 4- and 8-fold excess of SΔN-P [4] | Substance |
| --- | --- | --- | --- | --- | --- |
| 53% | 72.1% | 10.5% | – | – | full-length (fl) FACT (Spt16-Pob3) (from UniProt P32558 1-1035; Q04636 1-552) (complex) |
| – | – | – | 46.8% | – | SΔC-P (FACT lacking the C-terminus of Spt16) (from UniProt P32558 1-1035; Q04636 1-552) (complex) |
| – | – | – | 63% | – | S-PΔC (FACT lacking the C-terminus of Pob3) (from UniProt P32558 1-1035; Q04636 1-552) (complex) |
| – | – | – | 65% | 58% | SΔN-P (FACT lacking the N-terminus of Spt16) (from UniProt P32558 1-1035; Q04636 1-552) (complex) |
